According to paper PMC12188319:
pKd: −log10 of the molar value.

Biological target: FcγRIIIa (UniProt P08637)
Assay: SPR

Sequence of UniProt P08637 (P08637 17-254): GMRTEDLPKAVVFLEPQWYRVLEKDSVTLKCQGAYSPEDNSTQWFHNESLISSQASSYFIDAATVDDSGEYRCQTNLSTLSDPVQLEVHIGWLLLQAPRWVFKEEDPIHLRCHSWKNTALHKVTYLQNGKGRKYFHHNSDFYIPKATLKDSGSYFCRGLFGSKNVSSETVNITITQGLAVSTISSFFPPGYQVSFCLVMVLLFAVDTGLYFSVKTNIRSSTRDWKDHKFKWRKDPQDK

pKd: 6.82
Substance: JSKN003 (bispecific antibody)
